Source: patent US20100204147A1, “Methods For Delivering Thymosin Beta 4, Analogues, Isoforms and Other Derivatives” (REGENERX BIOPHARMACEUTICALS, INC., priority 2003, published 2010)

Biological target: T1, fibrin (Homo sapiens, UniProt P02671)
T1 construct: purchased Enzyme Research Laboratories (South Bend, Ind.); host or cells: fibrin generated in the well or tube from the purchased fibrinogen with bovine thrombin
T1 sequence (P02671 36-629): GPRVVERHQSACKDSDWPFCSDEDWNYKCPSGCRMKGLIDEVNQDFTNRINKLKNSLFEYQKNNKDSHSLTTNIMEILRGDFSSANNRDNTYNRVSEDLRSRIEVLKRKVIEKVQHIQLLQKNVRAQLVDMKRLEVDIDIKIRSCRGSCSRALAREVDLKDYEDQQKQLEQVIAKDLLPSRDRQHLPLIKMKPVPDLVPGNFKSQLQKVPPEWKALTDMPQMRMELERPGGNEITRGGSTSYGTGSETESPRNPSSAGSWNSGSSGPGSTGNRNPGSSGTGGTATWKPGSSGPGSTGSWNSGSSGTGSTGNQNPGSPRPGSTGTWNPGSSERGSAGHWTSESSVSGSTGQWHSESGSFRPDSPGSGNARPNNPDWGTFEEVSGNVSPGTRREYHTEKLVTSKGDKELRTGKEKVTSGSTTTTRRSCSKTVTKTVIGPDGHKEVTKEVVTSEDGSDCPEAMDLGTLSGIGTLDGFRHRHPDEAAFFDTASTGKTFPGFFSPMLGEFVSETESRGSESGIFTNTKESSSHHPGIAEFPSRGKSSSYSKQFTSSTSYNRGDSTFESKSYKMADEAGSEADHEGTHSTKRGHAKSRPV
T1 sequence (P02675 45-491 partner): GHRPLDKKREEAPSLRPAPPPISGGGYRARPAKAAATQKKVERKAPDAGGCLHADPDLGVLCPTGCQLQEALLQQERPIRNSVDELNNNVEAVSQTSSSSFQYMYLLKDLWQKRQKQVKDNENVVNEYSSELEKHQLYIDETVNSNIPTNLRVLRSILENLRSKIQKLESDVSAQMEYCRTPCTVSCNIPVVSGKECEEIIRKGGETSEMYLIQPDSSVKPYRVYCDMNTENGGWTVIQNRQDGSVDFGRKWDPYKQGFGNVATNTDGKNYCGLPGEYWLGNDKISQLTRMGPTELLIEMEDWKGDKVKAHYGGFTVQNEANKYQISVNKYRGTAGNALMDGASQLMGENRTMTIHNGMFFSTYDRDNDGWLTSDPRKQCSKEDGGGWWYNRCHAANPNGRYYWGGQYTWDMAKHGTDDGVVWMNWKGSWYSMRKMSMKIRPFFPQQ
T1 sequence (P02679 27-437 isoform P02679-2 partner): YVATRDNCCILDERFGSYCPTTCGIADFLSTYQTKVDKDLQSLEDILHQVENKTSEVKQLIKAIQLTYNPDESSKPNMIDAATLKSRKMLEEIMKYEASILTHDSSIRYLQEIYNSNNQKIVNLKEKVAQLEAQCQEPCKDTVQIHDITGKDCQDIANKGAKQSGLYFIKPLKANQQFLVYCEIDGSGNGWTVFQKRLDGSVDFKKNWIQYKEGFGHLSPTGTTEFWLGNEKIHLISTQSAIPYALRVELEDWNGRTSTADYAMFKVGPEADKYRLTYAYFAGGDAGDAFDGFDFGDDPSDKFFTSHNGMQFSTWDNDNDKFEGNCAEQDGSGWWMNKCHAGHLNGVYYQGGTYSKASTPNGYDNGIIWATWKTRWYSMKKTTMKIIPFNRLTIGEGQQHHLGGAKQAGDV
Test: Factor XIIIa-mediated incorporation of FITC-labeled thymosin β4 into fibrin (spectrophotometric)
Format: biochemical
Method: Reactions of incorporation of FITC-labeled and unlabeled thymosin β4 into fibrinogen and fibrin were performed in Eppendorf tubes containing a mixture of fibrinogen at 3 mg/mL (9 μM) and thymosin β4 or FITC-labeled thymosin β4 at […] (30 μM) in 100 μL TBS with 2.5 mM CaCl2. The reactions were initiated by addition of FXIIIa(Ca) or FXIIIa(Thr) to final concentration of 30 μg/mL. The final concentration of thrombin in the FXIIIa(Thr)-containing mixtures was made at 2.5 NIH u/mL, sufficient to rapidly form fibrin clot which was observed visually. The reactions with FITC-labeled thymosin β4 lasted for 4 hours at 37° C. in the dark and were stopped by heat inactiviation of the enzymes in boiling water for 5 min during fibrinogen and fibrin denatured and precipitated. The pellets were centrifuged and washed 3 times in TBS and then solubilized. The amounts of fibrin(ogen) and FITC-labeled thymosin β4 in the solubilized pellet were determined spectrophotomertrically using absorption molar coefficients E280,1%=15.0 and ε495=72,000 M^−1cm^−1, respectively. To prepare samples with unlabeled thymosin β4 for analysis by SDS-PAGE and Western blot the reaction mixtures at the indicated time were heat-inactivated as above and solubilized by addition of sample buffer (Invitrogen) containing SDS and reducing agent.

Substance: thymosin β4
- degree of incorporation into fibrin (fibrinogen 9 μM, thymosin β4 30 μM, factor XIIIa with thrombin, 4 hours, 37° C.): 0.4 moles per mole
- molar incorporation ratio of thymosin β4 to fibrin (physiological concentrations of fibrin(ogen) and factor XIII): 0.4
